The values below come from patent US20100035945A1, “SMALL MOLECULE INHIBITORS OF BACTERIAL DAM DNA METHYLTRANSFERASES” (priority 2004, published 2010).

Entries after “also recorded” stand apart in the source; their conditions may differ. Read-outs that look alike come from different tables or passages of the source.

Data set [1] relates to EPEC. The data set is described as follows: bacterial growth by OD600 of supernatant / growth curves. Format: cell-based, enteropathogenic E. coli (EPEC). The conditions noted are these: 20 μM compound, listed as G6. The procedure: (§1) To determine whether formation of actin pedestals by EPEC could be used to screen for drugs which inhibit virulence, we tested each of the 82 compounds. 3T3 cells were plated in 96 well optical dishes. In this “proof of principle” experiment, each of the 82 compounds was added to a well at 20 μM, and cells were infected with EPEC for 6 hrs. The optical density (OD600) of the supernatant was assessed to estimate effects on bacterial growth, and the cells were fixed and stained with DAPI to recognize bacteria (and cell nuclei), and FITC-phalloidin to recognize filamentous actin. Inhibition of actin pedestals is readily identifiable as the loss of intense actin staining (Kalman et al., 1999; Swimm et al., 2004a). The plate was then scanned visually on an inverted Zeiss 200M fluorescence microscope with a 20× objective. All the wells on the dish were examined with 5 minutes (a high throughput format). At low power, actin pedestals are seen as intense fluorescence apposed to groups of bacteria (see FIG. 31B, arrow).

The target of data set [2] is Dam (Escherichia coli, UniProt P0AEE8). To be noted: compound concentration 200 μM; preliminary results, microplate assay.
In data set [3] the test system is 3T3 cells. The conditions noted are these: 20 μM compound. How it is done: as §1
For data set [4], the system named is EPEC. Format: cell-based, enteropathogenic E. coli (EPEC). The conditions noted are these: 20 μM compound, 3T3 cells infected with EPEC for 6 hrs, FITC-phalloidin/DAPI.
From the text: Cell and animal models for pathogenic E. coli infection: Enteropathogenic E. coli (EPEC), which is closely related to enterohemorrhagic E. coli O157:H7 (EHEC), and the closely related mouse pathogen Citrobacter rodentium all cause attaching and effacing (A/E) lesions, characterized by flattening of intestinal microvilli, adherence of the bacteria to epithelial cells, and reorganization of the host actin cytoskeleton, which result in the formation of an actin-filled membrane protrusion or “pedestal” beneath each bacterium (Goosney et al., 2000; Knutton et al., 1989). Pedestal formation is readily detected on cultured fibroblasts (see FIG. 30) exposed to EPEC, and then stained with antibodies that recognized outer membrane proteins in the bacterium (green in FIG. 30) or DAPI, which recognizes bacterial and cellular DNA (blue in FIG. 30), together with phalloidin to recognize actin (red in […]). Pedestals are seen as intense actin staining directly opposed to the bacterium.
as §1

In data set [5] the target is T1, EcoDam DNA adenine methyltransferase (Escherichia coli, UniProt P0AEE8 SEQ:1-274). The conditions noted are these: 2-aminopurine replacing orphan Thy; AdoHcy, Thy flipping.
The target in data set [6] is EcoDam K9A K9A (Escherichia coli) (UniProt P0AEE8). Description: SPR. The conditions noted are these: data not shown.
Data set [7] addresses EcoDam R124A R124A (Escherichia coli) (UniProt P0AEE8). The data set is described as follows: SPR.
Data set [8] has as its target T1, EcoDam DNA adenine methyltransferase. The data set is described as follows: structure; AdoHcy cognate complex 1.89 A; also sinefungin non-canonical joint complex 1.99 A. The conditions noted are these: tags: His tag. The procedure:
His Tag-EcoDam is expressed in HMS174(DE3) cells and purified using Ni²⁺-affinity, UnoS, and S75 Sepharose sizing columns. A 0.5-liter induced culture yields approximately 7 mg purified His Tag-EcoDam. In the last purification step and during concentration, cofactor analog AdoHcy or sinefungin is added is added to the protein at approximately 2:1 molar ratio. Concentrated binary complexes are mixed with oligonucleotide duplex (synthesized by New England Biolabs, Inc) at a protein to DNA ratio of about 2:1 and allowed to stand on ice for at least two hours before crystallization. Final protein concentration for crystallization is about 15 mg/mL. In hanging drop crystallization trials with AdoHcy, the ternary complex crystals appeared under low salt conditions of 100 mM KCl, 10 mM MgSO₄, 5-15% PEG400, and 100 mM buffer (MES or HEPES) pH 6.6-7.4 (the cognate crystal form in Table 4).
Structural determination of the cognate ternary complex proceeded by molecular replacement with the program REPLACE (Tong and Rossmann, 1997) using protein coordinates of a DpnM monomer structure (PDB 2DPM) (Tran et al., 1998). […] Structure of the non-cognate ternary complex was determined using a protein monomer from the refined cognate complex structure as a search model.

The target of data set [9] is T2, T4Dam DNA adenine methyltransferase (Enterobacteria phage T4, UniProt P04392 SEQ:1-259). The data set is described as follows: structure; AdoHcy; PDB 1YF3; nonspecific and 1/4-site. The conditions noted are these: one-base 5' overhangs.
Data set [10] concerns the target T2, T4Dam DNA adenine methyltransferase. Description: structure; sinefungin; PDB 1YFL; full site with flipped Ade.
Data set [11] shares this target. The data set is described as follows: structure; AdoHcy; nonspecific mode, not at GATC; 3.1 A.

On to `O=C1Oc2ccccc2C(=O)/C1=C/Nc1nc(-c2ccc(O)c(O)c2)cs1` [Compound 78], for which the “effect on bacterial growth (OD600)” value in data set [1] is reported as “did not affect bacterial growth; also recorded: no effect on bacterial growth”. The same molecule gave a Factor of inhibition in data set [2] of 5. Also, in data set [3], the “gross cytopathological effects on 3T3 cells” value is given as “no gross cytopathological effects”. Also, the values for the actin pedestal formation result in data set [4], in data set [4] (listed as G6) and in data set [4] (listed as NCI 659390) were “inhibit actin pedestal formation”, “appeared to inhibit actin pedestals; also recorded: No actin pedestals are observed” and “inhibit actin pedestal formation”, respectively.

In data set [5], GATC with 2AP at orphan Thy displayed a binding signal (fold fluorescence increase) of 6.

SPR GATC oligonucleotide duplex: the binding signal (% of wild type binding) in [6] stood at 70. This molecule also registered a binding signal (fold reduction vs wild type) in [7] of 10.

B1: EcoDam 12-mer (dsDNA)
DNA 1: TCTAGATCTAGA
DNA 2: TCTAGATCTAGA
For B1, the binding result in data set [8] is reported as “binds”.

B2: 13-mer duplex II (dsDNA)
DNA 1: TGTCAGATCATGG
DNA 2: ACCATGATCTGAC
On to B2, for which the binding result in data set [9] is recorded as “binds”.

B3: 16-mer duplex (dsDNA)
DNA 1: TCACAGGATCCTGTGA
DNA 2: TCACAGGATCCTGTGA
B3: the binding result in data set [10] is “binds”.

B4: 12-mer duplex I (dsDNA)
DNA 1: ACAGGATCCTGT
DNA 2: ACAGGATCCTGT
B4: the binding result in data set [11] is listed as “binds”.
